{
  "source": "patent US6319893A",
  "about": "“Raising blood sugar level in hypoglycemic mammals by administering inhibitors of dipeptidyl peptidase IV” (Probiodrug, priority 1998, dated 2001)",
  "key": {"DP IV": {"molecular_target": "DP IV (Homo sapiens, UniProt P27487)", "sequence (P27487 whole entry)": "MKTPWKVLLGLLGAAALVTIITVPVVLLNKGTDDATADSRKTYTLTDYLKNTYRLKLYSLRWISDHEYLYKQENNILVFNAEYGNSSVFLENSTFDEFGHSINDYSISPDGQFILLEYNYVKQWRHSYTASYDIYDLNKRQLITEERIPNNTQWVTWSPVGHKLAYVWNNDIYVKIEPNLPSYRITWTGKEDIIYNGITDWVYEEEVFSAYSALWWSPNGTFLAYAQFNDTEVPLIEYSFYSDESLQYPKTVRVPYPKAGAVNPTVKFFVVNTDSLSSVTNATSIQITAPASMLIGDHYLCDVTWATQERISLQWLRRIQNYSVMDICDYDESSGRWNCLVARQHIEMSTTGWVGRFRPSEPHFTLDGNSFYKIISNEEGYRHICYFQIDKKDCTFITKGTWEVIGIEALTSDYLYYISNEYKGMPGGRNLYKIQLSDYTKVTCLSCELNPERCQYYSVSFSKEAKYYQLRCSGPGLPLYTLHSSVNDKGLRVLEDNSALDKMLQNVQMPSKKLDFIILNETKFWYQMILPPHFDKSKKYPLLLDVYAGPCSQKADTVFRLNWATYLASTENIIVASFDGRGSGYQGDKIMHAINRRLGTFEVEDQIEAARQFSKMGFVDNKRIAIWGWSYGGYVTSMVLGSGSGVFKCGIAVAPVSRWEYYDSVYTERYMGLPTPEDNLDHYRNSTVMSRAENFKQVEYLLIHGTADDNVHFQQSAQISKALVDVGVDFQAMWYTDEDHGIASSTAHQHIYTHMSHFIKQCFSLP", "experiment": "MALDI-TOF mass spectra of glucagon solution incubated with DP IV", "type": "biochemical", "conditions": "0.14 mmol glucagon solution, 40 mmol TRIS/HCL pH=7.6, 40 nmol DP IV; FIG. 1"}, "serum DP IV": {"molecular_target": "T1, serum DP IV (Homo sapiens, UniProt P27487)", "T1 construct": "from tissue; host or cells: serum", "T1 sequence (P27487 39-766 limits assumed)": "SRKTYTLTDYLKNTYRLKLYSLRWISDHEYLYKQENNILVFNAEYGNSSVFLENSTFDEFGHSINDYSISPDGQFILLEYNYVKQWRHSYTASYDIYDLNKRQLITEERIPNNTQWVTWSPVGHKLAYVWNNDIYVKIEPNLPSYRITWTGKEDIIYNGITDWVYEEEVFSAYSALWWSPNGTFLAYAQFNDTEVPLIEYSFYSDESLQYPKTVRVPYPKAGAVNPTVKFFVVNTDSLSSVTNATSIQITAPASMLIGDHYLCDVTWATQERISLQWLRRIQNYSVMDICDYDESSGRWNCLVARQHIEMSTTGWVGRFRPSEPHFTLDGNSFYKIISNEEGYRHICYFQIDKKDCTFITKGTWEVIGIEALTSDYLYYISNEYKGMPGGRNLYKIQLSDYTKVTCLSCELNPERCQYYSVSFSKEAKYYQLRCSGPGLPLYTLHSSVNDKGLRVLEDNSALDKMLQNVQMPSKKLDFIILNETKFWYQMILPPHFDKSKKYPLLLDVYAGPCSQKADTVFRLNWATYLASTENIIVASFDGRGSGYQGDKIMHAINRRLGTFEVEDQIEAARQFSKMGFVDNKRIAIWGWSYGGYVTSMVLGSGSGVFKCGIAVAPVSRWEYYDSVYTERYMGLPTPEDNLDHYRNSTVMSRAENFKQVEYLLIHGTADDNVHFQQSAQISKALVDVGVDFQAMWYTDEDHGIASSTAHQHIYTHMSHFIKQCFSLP", "experiment": "MALDI-TOF mass spectra of a glucagon-serum mixture, serum DP IV-catalysed glucagon cleavage", "type": "biochemical", "conditions": "no inhibitor, FIG. 2 A", "source_text": "Inhibition of Serum DP IV-catalysed Glucagon Cleavage by the DP IV Inhibitor Isoleticyl-thiazolidine"}},
  "data": [
    {"substance": "glucagon", "values": [
      {"measurement": "cleavage of glucagon by DP IV (MALDI-TOF)", "setting": "DP IV", "result": "removal of the dipeptides His-Ser and Gln-Gly occurs sequentially depending upon the incubation time"},
      {"measurement": "hydrolysis of glucagon by serum DP IV (MALDI-TOF)", "setting": "serum DP IV", "result": "serum-DP IV hydrolyses glucagoni"}
    ]}
  ]
}
